Assay results reported in publication PMC8649778.

Assays:
[1] = biological target: APRc_(110–231)(D140N)His, active site mutant of the soluble domain of APRc (UniProt Q92FY8); assay: shift of migration in nonreducing SDS-PAGE with Western blot
[2] = biological target: human IgG (human); assay: BLI

Substance | stoichiometry N [1] | Kd [2] [µM]
APRc_(110–231)(D140N)His, active site mutant of the soluble domain of APRc (from UniProt Q92FY8 110-231) (domain or fragment) | 2 | 
APRc_(110–231)His, soluble domain of APRc fused to a C-terminal His tag (from UniProt Q92FY8 110-231) (domain or fragment) |  | 12.6
